One data set concerns the target T1, MORC2 ATPase (Homo sapiens, UniProt Q9Y6X9 1-603).
T1 sequence: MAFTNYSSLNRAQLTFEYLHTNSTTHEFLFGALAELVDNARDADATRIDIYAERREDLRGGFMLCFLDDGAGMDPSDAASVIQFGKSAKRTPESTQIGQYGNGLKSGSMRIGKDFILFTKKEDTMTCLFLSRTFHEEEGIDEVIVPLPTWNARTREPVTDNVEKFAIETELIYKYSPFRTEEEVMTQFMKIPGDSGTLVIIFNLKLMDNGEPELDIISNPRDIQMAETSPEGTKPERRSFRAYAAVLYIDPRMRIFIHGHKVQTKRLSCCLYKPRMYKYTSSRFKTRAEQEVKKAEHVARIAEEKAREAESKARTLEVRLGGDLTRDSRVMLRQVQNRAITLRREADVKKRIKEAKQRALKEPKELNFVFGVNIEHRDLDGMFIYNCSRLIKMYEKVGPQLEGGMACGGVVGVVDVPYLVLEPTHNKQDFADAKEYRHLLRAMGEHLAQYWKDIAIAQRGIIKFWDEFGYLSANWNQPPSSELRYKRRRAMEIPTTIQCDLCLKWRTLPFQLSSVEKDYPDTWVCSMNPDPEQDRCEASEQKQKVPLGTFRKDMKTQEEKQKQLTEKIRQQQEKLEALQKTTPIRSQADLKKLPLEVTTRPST
Briefly: competition; pre-bound; more competitor uptake than WT; EMSA: 20 mM Tris pH 7.4, 75 mM NaCl, 5% glycerol, 0.005% NP-40, 0.5 mM MgCl2, RT 30 min; SPR: 10 mM HEPES pH 7.4, 300 mM NaCl, 3 mM EDTA, 0.05% Tween-20, 20 C. Conditions: protein: recombinant; tags: N-terminal 6xHis; closed circle. (In general: A gel shift assay detects complexes by their altered migration in electrophoresis.)

For the next data set, the target named is T2, MORC2 WT (Homo sapiens, UniProt Q9Y6X9 1-1032).
T2 sequence: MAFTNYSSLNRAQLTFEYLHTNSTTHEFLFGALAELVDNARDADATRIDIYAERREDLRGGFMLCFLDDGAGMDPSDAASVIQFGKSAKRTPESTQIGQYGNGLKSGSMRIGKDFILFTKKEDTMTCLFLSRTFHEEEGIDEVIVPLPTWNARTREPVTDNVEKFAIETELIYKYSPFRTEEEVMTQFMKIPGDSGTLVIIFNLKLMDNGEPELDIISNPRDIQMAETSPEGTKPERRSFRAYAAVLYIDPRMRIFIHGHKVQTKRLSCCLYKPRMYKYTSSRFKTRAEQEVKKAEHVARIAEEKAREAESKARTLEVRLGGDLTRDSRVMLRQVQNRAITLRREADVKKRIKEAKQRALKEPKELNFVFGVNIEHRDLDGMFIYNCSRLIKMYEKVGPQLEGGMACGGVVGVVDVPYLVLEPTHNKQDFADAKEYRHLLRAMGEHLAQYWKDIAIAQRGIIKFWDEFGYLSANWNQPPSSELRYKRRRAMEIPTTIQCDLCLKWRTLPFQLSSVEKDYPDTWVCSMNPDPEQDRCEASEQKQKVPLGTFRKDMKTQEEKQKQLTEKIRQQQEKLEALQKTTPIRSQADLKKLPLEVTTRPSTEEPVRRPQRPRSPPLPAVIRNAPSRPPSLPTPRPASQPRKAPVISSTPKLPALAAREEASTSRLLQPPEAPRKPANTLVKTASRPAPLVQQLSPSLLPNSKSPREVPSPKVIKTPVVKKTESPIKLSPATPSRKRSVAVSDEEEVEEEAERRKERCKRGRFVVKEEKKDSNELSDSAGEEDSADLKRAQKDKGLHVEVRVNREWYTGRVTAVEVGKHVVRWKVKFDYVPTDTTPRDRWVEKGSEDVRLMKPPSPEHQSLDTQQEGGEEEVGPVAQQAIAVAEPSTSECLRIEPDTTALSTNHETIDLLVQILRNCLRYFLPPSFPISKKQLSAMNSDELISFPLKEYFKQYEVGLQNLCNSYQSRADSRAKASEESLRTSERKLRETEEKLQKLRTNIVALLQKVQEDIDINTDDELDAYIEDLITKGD
Briefly: competition; pre-bound; resists 90 bp competitor (clamp); EMSA: 20 mM Tris pH 7.4, 75 mM NaCl, 5% glycerol, 0.005% NP-40, 0.5 mM MgCl2, RT 30 min; SPR: 10 mM HEPES pH 7.4, 300 mM NaCl, 3 mM EDTA, 0.05% Tween-20, 20 C. Conditions: protein: recombinant; tags: C-terminal 3C site-twin StrepII; chain copies: 2; closed circle.

B1: 101 bp circular dsDNA (dsDNA)
DNA 1: CGGTCGTTTAGCATACTAATCTGAGAGTCCGACGGTCGTCAGTCAGTCATGACTTCACAGAGGAAGGGCCAGTATCCTGTCCAAACTTGATGCTCGAATTC
DNA 2: GAATTCGAGCATCAAGTTTGGACAGGATACTGGCCCTTCCTCTGTGAAGTCATGACTGACTGACGACCGTCGGACTCTCAGATTAGTATGCTAAACGACCG
On to B1, for which the binding result with MORC2 ATPase and with MORC2 WT was “binds” each time.
